The target in the experiment is T1, HA-GCM1 (UniProt Q9NP62 1-436).
T1 construct: Expressed in transfected 293T or Hep3B cells; also called glial cells missing 1; pHA-GCM1; not shown: N-terminal HA tag
T1 sequence (looked up): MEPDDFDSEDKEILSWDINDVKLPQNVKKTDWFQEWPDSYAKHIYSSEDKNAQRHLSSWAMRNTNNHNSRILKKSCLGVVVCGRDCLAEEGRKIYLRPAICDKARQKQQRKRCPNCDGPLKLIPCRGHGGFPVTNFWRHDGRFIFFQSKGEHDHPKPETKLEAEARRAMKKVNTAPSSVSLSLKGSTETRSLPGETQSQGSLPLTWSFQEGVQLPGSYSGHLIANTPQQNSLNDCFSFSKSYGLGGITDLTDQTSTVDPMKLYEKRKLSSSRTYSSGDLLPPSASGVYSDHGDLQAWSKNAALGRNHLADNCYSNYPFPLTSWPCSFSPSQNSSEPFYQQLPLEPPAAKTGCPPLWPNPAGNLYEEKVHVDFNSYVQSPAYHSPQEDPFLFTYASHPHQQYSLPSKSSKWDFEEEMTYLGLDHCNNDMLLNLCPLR
The experiment can be described thus: co-immunoprecipitation with HA and FLAG mAbs in transfected 293T cells. An excerpt: 293T cells were transfected with different combinations of pΔNp63α-FLAG, pOVOL1-FLAG, and pHA-GCM1 for co-immunoprecipitation analysis with HA and FLAG mAbs. […] 293T cells were transfected with pHA-GCM1 and different pΔNp63α-FLAG plasmids encoding full-length or deletion mutant ΔNp63α-FLAG proteins, followed by co-immunoprecipitation analysis with HA and FLAG mAbs. Schematic representation of functional domains in ΔNp63α is presented. DBD: DNA-binding domain; OD: oligomerization domain; SAM: sterile alpha motif; TID: transactivation inhibitory domain. In a separate experiment, 293T cells were transfected with pΔNp63α-HA and pGAL4-FLAG or different pGAL4-GCM1-FLAG plasmids encoding full-length or deletion mutant GAL4GCM1-FLAG proteins for co-immunoprecipitation analysis with HA and FLAG mAbs. Schematic representation of functional domains in GCM1 is presented. TAD: transactivation domain. […] Glutathione-conjugated agarose beads pre-bound with GST, GST-SAM or GST-OD were incubated with recombinant GCM1-FLAG protein in pull-down assays. […] Mock and ΔNp63α-FLAG-expressing BeWo cells were subjected to immunoblotting (left) and quantitative RT-PCR (right) analyses of GCM1, HTRA4, and hCGβ proteins and transcripts. […] BeWo cells stably expressing scramble or GCM1 shRNA were subjected to immunoblotting (left) and quantitative RT-PCR (right) analyses of GCM1 and ΔNp63α proteins and transcripts.

Data on one molecule can be found in patent US20220155314A1 (ACADEMIA SINICA, published 2022).

B1: OVOL1-FLAG (other, human, UniProt O14753 1-267, looked up)
chain: MPRAFLVKKPCVSTCKRNWSELPDEERGEIYVPVSLGFCPPQPYREPEPSVAEPPSCPLALNMSLRDSSYSMAPGPCVVAQLPSEDMGHLTDPQSRDHGFLRTKMKVTLGDSPSGDLFTCRVCQKAFTYQRMLNRHMKCHNDVKRHLCTYCGKGFNDTFDLKRHVRTHTGVRPYKCSLCDKAFTQRCSLESHLKKIHGVQQKYAYKERRAKLYVCEECGCTSESQEGHVLHLKEHHPDSPLLRKTSKKVAVALQNTVTSLLQGSPHL
notes: also called pOVOL1-FLAG; pOVOL-1-FLAG; not shown: C-terminal FLAG tag
Consider B1, for which the binding result is “no binding”.
